This passage reports Kd results from doi:10.1101/2020.02.27.968578.

For data set [1], the target named is CFP (UniProt P42212). In words: cited. As to conditions: PBS, 5 mM MgCl2, pH 7.4, room temperature, 5 min; 50 nM GFP, excitation 480 nm; cited from earlier work.
In data set [2] the target is EGFP (UniProt P42212). In words: cited. As to conditions: PBS, 5 mM MgCl2, pH 7.4, room temperature, 5 min; 50 nM GFP, excitation 480 nm; cited from earlier work.
Data set [3] deals with YFP (UniProt P42212). In words: cited. The settings on record: PBS, 5 mM MgCl2, pH 7.4, room temperature, 5 min; 50 nM GFP, excitation 480 nm; cited from earlier work.
The target in data set [4] is EGFP (UniProt P42212). Description: GFP fluorescence quenching titration. The settings on record: PBS, 5 mM MgCl2, pH 7.4, room temperature, 5 min; 50 nM GFP, excitation 480 nm.

One may read the Kd as the constant that tells how readily two partners part at equilibrium. For the sequence “GGGAGCUUCUGGACUGCGAUGGGAGCACGAAACGUCGUGGCGCAAUUGGGUGGGGAAAGUCCUUAAAAGAGGGCCACCACAGAAGC [AP3 (GFP aptamer)]”, the dissociation constant (Kd) in data set [1] is 10 nM; in data set [2], 4 nM; in data set [3], 10 nM; in data set [4] it was 4 nM.
